This is an account of results in US20180339041A1 (Kyowa Kirin, published 2018).

For orientation: EC50 (read off the curve) means the concentration at which the effect is half-maximal.

In test [1] the target is T1, human protein S (derived from human serum; Enzyme Research Laboratories) (human, UniProt P07225 42-676).
T1 construct: Homologue of Gas6 used as specificity control
T1 sequence (looked up): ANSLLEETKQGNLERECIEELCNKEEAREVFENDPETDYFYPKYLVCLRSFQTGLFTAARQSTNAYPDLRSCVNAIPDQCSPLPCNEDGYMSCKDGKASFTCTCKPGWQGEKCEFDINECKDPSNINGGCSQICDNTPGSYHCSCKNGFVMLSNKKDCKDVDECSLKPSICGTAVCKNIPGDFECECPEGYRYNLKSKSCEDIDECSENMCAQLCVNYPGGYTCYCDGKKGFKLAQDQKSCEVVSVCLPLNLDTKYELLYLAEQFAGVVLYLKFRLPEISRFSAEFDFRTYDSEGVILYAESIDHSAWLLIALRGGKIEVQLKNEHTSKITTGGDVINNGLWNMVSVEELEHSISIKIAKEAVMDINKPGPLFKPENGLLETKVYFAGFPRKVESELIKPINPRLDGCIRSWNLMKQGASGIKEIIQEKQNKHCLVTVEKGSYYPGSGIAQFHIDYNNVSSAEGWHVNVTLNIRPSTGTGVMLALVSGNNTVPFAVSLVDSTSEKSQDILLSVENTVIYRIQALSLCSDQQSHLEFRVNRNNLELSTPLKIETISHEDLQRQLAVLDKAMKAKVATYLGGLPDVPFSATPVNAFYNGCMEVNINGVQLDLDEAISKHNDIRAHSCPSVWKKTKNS
Nature of the test: ELISA: human protein S coated directly on the plate (2 µg/mL); biotinylated test antibody; streptavidin-HRP/TMB (Example 6, method of Example 5(5)) [F]. How it is done:
First, a 2 μg/mL solution of the antigen (prepared from each antigen with PBS (manufactured by Nacalai Tesque, Inc.)) was dispensed at 50 μL/well to a 96-well plate for ELISA (manufactured by Nalge Nunc International), and the plate was left standing overnight at 4° C. for adsorption. The plate was washed five times with Tween 20-PBS. Then, 1% BSA-PBS (manufactured by Nacalai Tesque, Inc.) was added thereto at 300 μL/well, and the plate was left standing at room temperature for 1 hour for blocking and washed five times with Tween 20-PBS (manufactured by Wako Pure Chemical Industries Ltd.). Next, the hybridoma culture supernatant was dispensed thereto as a test substance at 50 μL/well, and the plate was left standing at room temperature for 1 hour and then washed five times with Tween 20-PBS. Next, polyclonal goat anti-mouse immunoglobulins/HRP (Dako Denmark A/S, P0447) diluted 2000-fold with 1% BSA-PBS was dispensed thereto at 50 μL/well, and the plate was left standing at room temperature for 1 hour. The plate was washed five times with Tween 20-PBS, and TMB (manufactured by Sigma-Aldrich Co. LLC) was added thereto at 50 μL/well and reacted. At an appropriate point in time, the reaction was terminated by the addition of 1 N hydrochloric acid (manufactured by Wako Pure Chemical Industries Ltd.) at 50 μL/well. The absorbance at a sample wavelength of 450 nm and a reference wavelength of 570 nm (450 nm-570 nm) was measured using a plate reader (Spectra Max, manufactured by Molecular Devices, LLC).
The binding activity of the obtained antibodies against human protein S was measured in the same way as in Example 5(5). […] The secondary detection reagent used was Streptavidin HRP Conjugate (manufactured by R&D Systems, Inc.) diluted 200-fold with 1% BSA-PBS.

Test [2] has as its target T2, C-terminally FLAG-tagged human Gas6 recombinant protein (hGas6-F) (human, UniProt Q14393 31-678, gamma-carboxylated glutamic acid residues in the Gla domain (producer cells co-express rat VKOR and human GGCX); positions not given).
T2 construct: also called human Gas6-F; human Gas6 protein
T2 sequence: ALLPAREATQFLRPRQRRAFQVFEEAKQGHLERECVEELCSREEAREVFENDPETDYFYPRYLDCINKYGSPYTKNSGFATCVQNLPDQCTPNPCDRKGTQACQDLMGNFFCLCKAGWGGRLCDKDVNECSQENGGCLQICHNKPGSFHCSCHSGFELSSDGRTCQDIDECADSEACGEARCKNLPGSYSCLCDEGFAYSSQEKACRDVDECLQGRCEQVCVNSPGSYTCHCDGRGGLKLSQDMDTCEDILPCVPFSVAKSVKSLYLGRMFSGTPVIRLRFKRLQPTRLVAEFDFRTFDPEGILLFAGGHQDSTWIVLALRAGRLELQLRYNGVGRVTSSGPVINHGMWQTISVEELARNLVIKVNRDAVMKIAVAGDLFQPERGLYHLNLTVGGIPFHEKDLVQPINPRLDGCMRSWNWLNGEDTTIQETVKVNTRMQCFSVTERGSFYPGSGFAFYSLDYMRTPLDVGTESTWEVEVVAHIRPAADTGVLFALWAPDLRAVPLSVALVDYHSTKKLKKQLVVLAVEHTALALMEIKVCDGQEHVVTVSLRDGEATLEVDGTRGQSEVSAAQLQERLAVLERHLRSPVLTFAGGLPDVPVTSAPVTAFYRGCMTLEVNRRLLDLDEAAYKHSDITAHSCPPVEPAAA
Nature of the test: ELISA: hGas6-F (1 µg/mL) captured on coated anti-FLAG M2 antibody; biotinylated test antibody; streptavidin-HRP/TMB; absorbance 450-570 nm, N=2 (Example 6) [A]. Here is the method:
First, 2 μg/mL anti-FLAG antibody [Monoclonal ANTI-FLAG M2 antibody produced in mouse (manufactured by Sigma-Aldrich Co. LLC) diluted with PBS (manufactured by Nacalai Tesque, Inc.)] was dispensed at 50 μL/well to a 96-well plate for ELISA (manufactured by Nalge Nunc International), and the plate was left standing overnight at 4° C. for adsorption. After removal of the immobilization solution, 1% BSA-PBS (manufactured by Nacalai Tesque, Inc.) was added thereto at 300 μL/well, and the plate was left standing at room temperature for 1 hour for blocking and washed five times with Tween 20-PBS (manufactured by Wako Pure Chemical Industries Ltd.).
Each antibody solution was dispensed thereto at 50 μL/well, and the plate was left standing at room temperature for 1 hour. This plate was washed five times with Tween 20-PBS. Then, Streptavidin HRP Conjugate (manufactured by R&D Systems, Inc.) diluted 200-fold with 1% BSA-PBS was dispensed thereto at 50 μL/well, and the plate was left standing at room temperature for 1 hour. This plate was washed five times with Tween 20-PBS, and TMB (manufactured by Sigma-Aldrich Co. LLC) was added thereto at 50 μL/well and reacted. […] The absorbance at a sample wavelength of 450 nm and a reference wavelength of 570 nm (450 nm-570 nm) was measured using a plate reader.
Background: In an ELISA, binding on a coated surface is turned into a signal by an enzyme label.

B1: anti-human Gas6 mouse monoclonal antibody KM5321 (KM5321-mKG1 antibody) (antibody, V domains shown)
VH: QIQLVQSGPELKKPGETVKISCRASGYTFTNYGMNWVKQAPGKGLKWMGWINTNTGEPTYTEEFKGRFAFSLETSATTAYLQINDLKNEDTATYFCARDEGWFVYWGQGTLITVSA
VL: ETTVTQSPASLSVATGEKVTIRCITSTDIDDDMNWYQQKPGEPPKLLISEGNTLRPGVPSRFSSSGYGTDFVFTIENTLSEDVADYYCLQTDSVPLTFGAGTKLELK
notes: Hybridoma-derived mouse IgG1, kappa; also called KM5321 antibody
For B1, in test [1], the binding result is “no binding (tested: 5 µg/mL)”. The “EC50 (read off the curve)” value in test [2] is roughly 4 ng/mL.

B2: anti-human Gas6 mouse monoclonal antibody KM5320 (KM5320-mKG1 antibody) (antibody, V domains shown)
VH: QIQLVQSGPELKKPGETVKISCKASGYTFTNYGMNWVKQAPGKGLKWMGWINTETGEPTYSDDFKGRFAFSLETSATTAYLQINNLRNEDMATYFCAREDGYYGTLDYWGQGTSVTVSS
VL: SIVMTQTPKFLLVSAGDRVTITCKASQSVSNDVAWYQQKPGQSPKVLIYYASNRYTGVPDRFTGSGYGTDFTFTISTVQAEDLAVYFCQQDYSSPWTFGGGTKLEIK
notes: Hybridoma-derived mouse IgG1, kappa; also called KM5320 antibody
On to B2, for which, in test [1], the binding result is on record as “no binding (tested: 5 µg/mL)”. The “EC50 (read off the curve)” value in test [2] was roughly 3 ng/mL.
